How the values were obtained:
Assay in all cases: UV-vis
Settings in all cases: not stated (1 mM each of sodium phosphate, sodium citrate and sodium borate; 0.1 mM EDTA; no added salt mentioned), Polybuffer: 1 mM each of sodium phosphate, with 0.1 mM EDTA. Starting pH 9.3, titrated with 25 mM HCl., Reduced (DTT-treated, desalted) active-site dithiol form, folded, 10-25 µM protein, the oxidised (diamide) protein served as reference
[1] = target: Cys12 (UniProt position 12, YAQPDCPPCVI)
[2] = target: Cys12 (UniProt position 12, YTQPDCPPCVI)
[3] = target: Cys15 (UniProt position 15, PDCPPCVIVKE)

“Thioredoxin BC3987 T8A mutant (Bacillus cereus ATCC 14579; T8A)” showed a pKa [1] of 7.2.
Substance “Thioredoxin BC3987 (NrdH/Cp9-like small thioredoxin, C-P-P-C active site) (Bacillus cereus ATCC 14579)” has a pKa [2] of 7.2 and a pKa [3] of 5.1.
